Test: yeast display, Sf9 membrane polyspecificity reagent, FACS + sequencing; frameworks hold sequencing errors
Outline: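 Genes from sorted yeast were amplified by colony PCR, read by MiSeq 2 × 250 sequencing and filtered on CDR length. These cells carried a synthetic nanobody library in Saccharomyces cerevisiae BJ5465 and were sorted by FACS into low and high (top ~1%) gates on anti-HA and streptavidin fluorescence. Polyreactivity is labelled according to the gate of origin.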

Row | Sequence | polyreactivity (PSR sort gate)
1 | QVQLVESGGGLVQAGGSLRLSCAASGSIFSGNAMGWYRQAPGKERELVASINRSGGSTYYADSVKGRFTISRDNAKNTVYLLMNSLKPEDTAVYYCAARRVWLAGYDSWGQGTQVTVSS | low polyreactivity
2 | QVQLVESGGGLVQAGGSLRLSCAASGSIFSGYAMGWYRQAPGKERELVAAINWTGDSTYYADSVKGRFTISRDNAKNTVYLQMNSLKPEDTAVYYCAAIRRQKGLWDYYYWGQGSQVTVSS | low polyreactivity
3 | QVQLVESGGGLVQAGGSLRLSCAASGSIFSINAMGWYRQAPGKERELVAAISWDGGSTYYADSVKGRFTISRDNAKYTVYLQKNSLKPEDTAVYYCNAAGYVPRNIFAGSRSLRYDYWGQGTQVTVSS | high polyreactivity
4 | QVQLVESGGGLVQAGGSLRLSCAASGSIFSINAMGWYRQAPGKERELVAVISWIGGNTYYADSVKGRFTISRDNAKNTVYLQMNSLKPEDTAVYYCAVATGPVSYRRYYWGQGTQVTVSS | high polyreactivity
5 | QVQLVESGGGLVQAGGSLRLSCAASGSIFSINARGWYRQAPGKERELVAAITYSTGSTYYADSVKGRFTISRDNAKNTVYLQMNSLKPEDTAVYYCAAVYKRTYLHSQTYGYYYWGQGTQVTVSS | high polyreactivity
6 | QVQLVESGGGLVQAGGSLRLSCAASGSIFSINTMGWYRQAPGKERELVAAITRSGSGTYYADSVKGRFTISRDNAKNTVYLQMNSLKPEDTAVYYCAKPAGARLGYWGQGTQVTVSS | low polyreactivity
7 | QVQLVESGGGLVQAGGSLRLSCAASGSIFSINTMVWYRLAPGKERELVAAISRTGGSTYYADSVKGRFTNSRDNAKNTVYLQMNSLKPEDTAVYYCGKDRRRSTYEYWGQCTQVTVSS | high polyreactivity
8 | QVQLVESGGGLVQAGGSLRLSCAASGSIFSIYAMGWYRQAPGKERELVASITRSSGRTYYADSVKGRFTISRDNAKNTVYLQMNSLKPEDTAVYYCAKDYIPLALDADDYWGQGTQVTVSS | low polyreactivity
9 | QVQLVESGGGLVQAGGSLRLSCAASGSIFSKNAIGWYRQAPGKERELVDAISASGASTYYADSVKGRFTISRDNEKNTVYLQMNSLKPEDTAVYYCNADVSGVSSYGRSYEFYYWGQGTQVTVSS | low polyreactivity
10 | QVQLVESGGGLVQAGGSLRLSCAASGSIFSKNTMGWYRQAPGKEREFVARISVRGGSTYYADSVKGRFTISRDNAKNTVYLQMNSLKPEDTAVYYCNAAHTVTQNSRNSDYWGQGTQVTVSS | high polyreactivity
11 | QVQLVESGGGLVQAGGSLRLSCAASGSIFSKYVMGWYRQAPGKEMELVASITSGGRTNYADSVKGRFTISRDNAKNTVYLQMNSLKPEDTAVYYCAARALKTWYRSGVDYWGQGTQVTVSS | low polyreactivity
12 | QVQLVESGGGLVQAGGSLRLSCAASGSIFSLNAMGWYRQAPGKERELVAAINSGGTSTYYADSVKGRFTMSRDNAKNTVYLHMKSLKPEDTAVYYCAKRQRDYSSVFDVDYWGQGTQVTVSS | low polyreactivity
13 | QVQLVESGGGLVQAGGSLRLSCAASGSIFSLYAMGCYIQAHGKERELVAAISRGGSTNYADSVKGRFTISRDNAKNTVYLQMNSLKPEDTAVDYCNAGFGVRRKHITFYTWYDYWGQGTQVTVSS | low polyreactivity
14 | QVQLVESGGGLVQAGGSLRLSCAASGSIFSNYAMGGYRQAPGKERELVAAISRNGGSTSYADSVKGRFTISRDNAKNTVYLQMNSLKPEDTAVYYCAKRYKTAQYYYWGQGTQVTVSS | high polyreactivity
15 | QVQLVESGGGLVQAGGSLRLSCAASGSIFSPNAMGWYRQAPGKERELVATISFSGGRTYYADSVKGRFTISRDNAKNTVYLQMNSLKPEDTAVYYCAKAYYYTDMDYWGQGTQVTVSS | low polyreactivity
16 | QVQLVESGGGLVQAGGSLRLSCAASGSIFSPYAMGWYRQAPGKERELVAAIRWGGGGTYADSVKGRFTISRDNAKNTVYLQMNSLKPEDTAVYYCAARRRSRRGYDYWGQGTQVTVSS | high polyreactivity
17 | QVQLVESGGGLVQAGGSLRLSCAASGSIFSPYAMGWYRQAPGKERELVAAISFRASTTYYADSVKGRFTISRDNAKNTVYLQMNSLKPEDTAVYYCAASPLYSWFWGLYDYWGQGTQVTVSS | low polyreactivity
18 | QVQLVESGGGLVQAGGSLRLSCAASGSIFSPYAMGWYRQAPGKERELVDAISFRASTTYYADSVKGRFTISRDNAKNTVYLQMNSLKPEDTAVYYCAASPLYSWFWGLYDYWGQGTQVTVSS | low polyreactivity
19 | QVQLVESGGGLVQAGGSLRLSCAASGSIFSQNAMGWYRQAPGKERELVASITYSGGSTYYADSVKGRFTISRDNAKNTVYFQMNSLKPEDTEVYYCAADVRYSSRFYYWGQGTQVTVSS | high polyreactivity
20 | QVQLVESGGGLVQAGGSLRLSCAASGSIFSQYAMGCYREAPGKERELVAAISSSGDSTNYADSVKGRFTISRDNAKNTVYLQMNSLKPEDTGVYDCAADPYYFYIWYWWPSFDYWGQGTQVTVSS | low polyreactivity
21 | QVQLVESGGGLVQAGGSLRLSCAASGSIFSQYAMGSYRQAPGKERELVAAITSGGRTYYADSVKGRFTISRDNAKNTVYLQMNSLKPEDTAVYYCAASRRGGGLDYWGQGTKVTVSS | high polyreactivity
22 | QVQLVESGGGLVQAGGSLRLSCAASGSIFSQYAMGWYRQAPGKERELVAAISASGGRTYYADSVKGRFTISRDNAKNTVYLQMNSLKPEDTAVYYCNAAHGSNRYSFVNPFYYWGQGTQVTVSS | high polyreactivity

Row | Sequence | polyreactivity (PSR sort gate)
23 | QVQLVESGGGLVQAGGSLRLSCAASGSIFSQYAMGWYRQAPGKERELVAAITYGGGSTYYADSVKGRFTISRDNAKNTVYLQMNSLKPEDTAVYYCAKEFKYWGYPYDYWGQGTQVTVSS | low polyreactivity
24 | QVQLVESGGGLVQAGGSLRLSCAASGSIFSRNAMGWYRQAPGTERELVAAITDSTGTTYYADSVKGRFTISRDNAKNTVYLQMNSLKPEDTAVYYCNAVGVPQGNFYVRGDDYWGQGTQVTVSS | low polyreactivity
25 | QVQLVESGGGLVQAGGSLRLSCAASGSIFSRNTLGWYRQAPGKERELVAAITRGGSTDYADSVKGRFTISRDNAKNTVYLQMNSLKPEDTAVYYCAKKTPGWGKFDYWGQGTQVTVSS | low polyreactivity
26 | QVQLVESGGGLVQAGGSLRLSCAASGSIFSRNVMGWSRQAPGKERELVAGISWRGGRTYYADSVKGRFTISRDNAMITVYLQMTSLKPEDTAVYYCAKGGVSYGEGDYWGQGTQVTVSS | high polyreactivity
27 | QVQLVESGGGLVQAGGSLRLSCAASGSIFSRYAMGWYRQAPGKERELVAAISSSGSSTYYADSVKGRFTISRDNAKNTVYLQMNSLKPEDTAVYYCAATGYPRFGYWGQGTQVTVSS | high polyreactivity
28 | QVQLVESGGGLVQAGGSLRLSCAASGSIFSRYAMGWYRQAPGKERELVAAITSSGTSTYYADSVKGRFTISRDNAKNTVYLQMNSLKPEDTAVYYCAAAFRQRTSRFDYWGQGSQVTVSS | high polyreactivity
29 | QVQLVESGGGLVQAGGSLRLSCAASGSIFSRYAMGWYRQAPGKERELVADITTRGGRTYYADSVKGRFTISRDNAKNTVYLQMNSLKPEDTAVYYCATLHSYRYRGGGDYWGQGTQVTVSS | high polyreactivity
30 | QVQLVESGGGLVQAGGSLRLSCAASGSIFSRYAMVWYRQAPGKERELVAAISWSGGRTYYADSVKGRFTISRDNAKNTVYLQMNSLKPEDTAVYYCAAPSYTTSWRYDYWGQGTQVTVSS | high polyreactivity
31 | QVQLVESGGGLVQAGGSLRLSCAASGSIFSRYTMGWYRQAPGKERELVAAISSGGSTNYADSVKGRFTISRDNAKNTVYLQMNRLKPEDTAVYYCAARSYRYYYGFDYWGQGTQVTVSS | low polyreactivity
32 | QVQLVESGGGLVQAGGSLRLSCAASGSIFSRYTMGWYRQAPGKERELVAAISYSGTRTYYADSVKGRFTISRDNAKNTVYLQMNSLKPEDTAVYYCAAIASPAGSNYWGQGTQVTVSS | high polyreactivity
33 | QVQLVESGGGLVQAGGSLRLSCAASGSIFSRYTMGWYRQAPGKERELVAAITSSGVSTYYADSVKGRFTISRDNAKNTVYLQMNSLKPEDTAVYYCAAYSVFRSYDYWGQGTQVTVSS | high polyreactivity
34 | QVQLVESGGGLVQAGGSLRLSCAASGSIFSRYTMGWYRQAPGKERELVAVISTSGGSTYYADSVKGRFTISRDNAKNTVYLQMNSLKPEDTAVYYCNARPKRGSLGGPGYGYWGQGTQVTVSS | high polyreactivity
35 | QVQLVESGGGLVQAGGSLRLSCAASGSIFSSNAMGWYRPAPGKERELVAAITSGGSTTYADSVKGRFTISRDNAKNTVYLQMNSLKPEDTAVYYCNARNYYYPSDRDYWGQGTQVTVSS | low polyreactivity
36 | QVQLVESGGGLVQAGGSLRLSCAASGSIFSSNAMGWYRQAPGKERELVAAITSGGSTTYADSVKGRFTISRDNAKNTVYLQMNSLKPEDTAVYYCAADPVYRYYHGWTYLDYDYWGQGTQVTVSS | low polyreactivity
37 | QVQLVESGGGLVQAGGSLRLSCAASGSIFSSNAMGWYRQAPGKERELVAAITVSGGSTYYADSVKGRFTISRDNAKNTVYLQMNSLKPEDTAVYDCAVPVTYYFDGSWWRYDYWGQGTQVTVSS | high polyreactivity
38 | QVQLVESGGGLVQAGGSLRLSCAASGSIFSSNAMGWYRQAPGTTNYADSVKGRFTISRDNAKNTVYLQMNSLKPEDTAVYYCAKDYVLFQYVDFQDDDYWGQGTQVTVSS | low polyreactivity
39 | QVQLVESGGGLVQAGGSLRLSCAASGSIFSSNTMGWYRQAHGKERELVAAITVSGGRTYYADSVKGRFTISRDNAKNTVYLQMNSLKPEDTAVYYCATRWFGNSYSYRAYDYWGQGTQVTVSS | high polyreactivity
40 | QVQLVESGGGLVQAGGSLRLSCAASGSIFSSNTMGWYRQAPGKERELVAAITVSGGRTYYADSVKGRFTISRDNAKNTVYLQMNSLKPEDTAVYYCATRWFGNSYSYRAYDYWGQGTQVTVSS | high polyreactivity
41 | QVQLVESGGGLVQAGGSLRLSCAASGSIFSSYAMGWYRQAPGKEREFVAAINNNDGGTDYADSVKGRFTISRDNAKNTVYLQMNSLKPEDTAVYYCAADYTRYVQTTYDYWGQGTQVTVSS | low polyreactivity
42 | QVQLVESGGGLVQAGGSLRLSCAASGSIFSSYAMGWYRQAPGKERELVAAISTAGSTNYADSVKGRFTISRDNAKNTVYLQMNSLKPEDTAVYYCAADSGDQQSYGLDLNHDFDYWGQGTQVTVSS | low polyreactivity
43 | QVQLVESGGGLVQAGGSLRLSCAASGSIFSSYAMGWYRQAPGKERELVAGISKSGGSTYYADSVKGRFTISRDNAKNTVYLQMNSQKPEDTAVYYCAGPSYWGGGRYRYGYWGQGTQVTVSS | high polyreactivity

Reference: the nanobody polyreactivity screen of Harvey et al. (2022)
